These are literature values, as cited in paper PMC8727504.

For this series, the target named is sMMOH (Methylosinus trichosporium) (UniProt P27353). Kind of series: competition.

A word on the Kd: it is the equilibrium constant for the complex coming apart. MMOB (from UniProt P27356): the Kd was under 0.1 µM.
